Values of other authors, collected in publication PMC7432558.

Molecular target: TEAD1 (Homo sapiens) (UniProt P28347)
Chain of UniProt P28347 (P28347 whole entry): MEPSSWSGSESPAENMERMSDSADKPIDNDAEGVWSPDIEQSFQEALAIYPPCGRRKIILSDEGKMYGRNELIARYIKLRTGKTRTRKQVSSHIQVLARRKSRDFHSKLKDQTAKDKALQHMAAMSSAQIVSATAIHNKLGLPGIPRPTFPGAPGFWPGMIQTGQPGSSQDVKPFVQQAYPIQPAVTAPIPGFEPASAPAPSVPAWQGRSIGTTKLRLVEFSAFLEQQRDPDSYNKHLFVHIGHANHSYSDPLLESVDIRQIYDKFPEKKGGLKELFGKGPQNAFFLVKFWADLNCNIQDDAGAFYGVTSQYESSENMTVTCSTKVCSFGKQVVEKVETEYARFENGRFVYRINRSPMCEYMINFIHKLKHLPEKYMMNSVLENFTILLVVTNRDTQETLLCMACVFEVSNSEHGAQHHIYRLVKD

- Kd: 15 nM
Substance: YAP-derived cyclic peptide 81-100 (from UniProt P46937)
